The chains are these.
B1: LINE1-full (parent)
chain: UACGUAGGUGGUUUUCCCCUGAUAGUGCUAAGGGGGCCUGGAAGUUUGGACUGGGCAGAGCUCAACACAGCGUGGCAAAGUGGCUGUGGCUAGACUGCCUCUCUGGAUUCCUCGUCACUCAGCAGGGCAUCUCUGAGAGAAAUGCC
B2: OR4K15 (parent)
chain: GUUAACGGUCAUAGGCCAUGGAAACUAGGAGCACCAUUUCGCUGCCAGUGAAGAAAUGAACAAAGAAAAUCUGGGCCAGGCAGGCAUCAAAAGAAAUAGUCUUGCGCUCAACCAGAAAGUCUGUAAUCAUUUUAAGGGUA

Variants of B1 are the subject of one data set. The data set can be described thus: self-cleavage, relative activity (ratio to wild type); higher = more cleavage; in vitro, sequencing; the parent is a self-cleaving ribozyme.
As for A141G U143C, the self-cleavage was determined as 1.31.
Still for that read-out and setting: as for U143A G144A, the figure is 1.4; as for A141G C146U, 1.31; as for A141U A142G, 1.79.
With A141U U143A, the self-cleavage was 0.6.
On the same count and under the same terms, as for A141G A142U, the figure is 1.36; as for A142C, 0.53; as for A142U, 1.22.
On to A142G, for which the self-cleavage was 1.21.
For C145G, the self-cleavage is 0.55.
Take C145U: the self-cleavage was found to be 1.32.
Regarding C145A, the self-cleavage stood at 0.95.
Take A142G U143G: the self-cleavage was 0.16.
Consider U143C G144A, for which the self-cleavage was found to be 2.03.
Take U143A C145U: the self-cleavage was 1.39.
For A142G C145U, the self-cleavage stood at 1.11.

The next data set covers variants of B2. Described as above.
U100A A140U: the self-cleavage stood at 0.83.
Turning to A90U A116U, the self-cleavage was determined as 0.24.
Regarding A18G A96G, the self-cleavage was 1.44.
As for A24G G84C, the self-cleavage turned out to be 0.53.
Consider A55U A98G, for which the self-cleavage came to 0.19.
Regarding U2C A64G, the self-cleavage was 1.48.
In the case of A30U A51G, the self-cleavage came to 1.55.
Take A13G U38A: the self-cleavage stood at 0.78.
Turning to A92C A114G, the self-cleavage was found to be 0.98.
Same read-out and setting: for A36G A110G the value was 0.07; for A11C U72A, 0.17.
For C25U U131C, the self-cleavage turned out to be 1.57.
The same measure, in the same setting: as for A62G G138A, the figure is 1.04; as for A23G G84U, 0.21; as for A90G A117U, 1.07.
As to A96G U139C, the self-cleavage worked out at 1.42.
For A22C U70C, the self-cleavage amounted to 1.25.
The same measure, in the same setting: as for C45U A129G, the figure is 1.16; as for C17U G83A, 1.07; as for U37C A86G, 1.47.
Still for that read-out and setting: for A5G A62G the value was 0.59; for C40U U72A, 0.34.
In the case of A5G A67G, the self-cleavage was 0.89.
For the variant A96G U120C, the self-cleavage was found to be 1.14.
Consider U43C A135G, for which the self-cleavage was found to be 2.01.
For A66G A90C, the self-cleavage is 0.17.
With A95G U100C, the self-cleavage was 2.52.
The same measure, in the same setting: for U39C A95G the value was 1.53; for A98G C109A, 0.03; for G79A U132C, 0.1.
For the variant A47G A91G, the self-cleavage was 0.69.
C85U A91G: the self-cleavage stood at 0.52.
As for A22U A30G, the self-cleavage was 1.13.
The same measure, in the same setting: for U39C A134U the value was 1.21; for A63G U127C, 0.58.
On to A33U U131C, for which the self-cleavage turned out to be 1.83.
On to G74U G119A, for which the self-cleavage is 0.19.
Turning to A60C A68G, the self-cleavage is 1.17.
As for A67U A117G, the self-cleavage is 2.28.
Consider U72C A134G, for which the self-cleavage stood at 0.16.
With A13G U124C, the self-cleavage was determined as 0.57.
As for U43A U120C, the self-cleavage worked out at 0.37.
Still for that read-out and setting: as for A118U U120A, the figure is 1.68; as for A13G A36G, 0.49; as for U12A U122C, 1.26.
Still for that read-out and setting: for A24G U70A the value was 1.17; for U108C A118G, 0.01.
Turning to A90G U102C, the self-cleavage was found to be 1.97.
Regarding U97C U108A, the self-cleavage stood at 0.
Take U19C U108A: the self-cleavage is 0.03.
As for A66G A98G, the self-cleavage was 0.38.
For U57C A140G, the self-cleavage was determined as 1.11.
For G106U A129G, the self-cleavage came out at 0.01.
On the same count and under the same terms, for U38C C40A the value was 1.48.
In the case of A33G A78G, the self-cleavage was 0.19.
As for A110G A118G, the self-cleavage came out at 0.08.
Still for that read-out and setting: as for C88U A95G, the figure is 2.12; as for G44C U102C, 2.81.
Same read-out and setting: for A47G U108C the value was 0.01.
Regarding A62G A116G, the self-cleavage amounted to 0.64.
C81U A134G: the self-cleavage is 0.53.
Consider A51G U72C, for which the self-cleavage came out at 0.38.
Regarding A62C A118G, the self-cleavage came to 1.46.
Consider A95G U131C, for which the self-cleavage is 1.46.
Regarding A5U A67U, the self-cleavage was 0.99.
Consider U38C U122C, for which the self-cleavage was 0.8.
For the variant U37C A140G, the self-cleavage came out at 1.24.
Still for that read-out and setting: as for U100C A111C, the figure is 0.01; as for A56G C107A, 0.02; as for A11G G84U, 0.53.
On to A82G A134G, for which the self-cleavage was determined as 0.54.
With A69G U122G, the self-cleavage came to 1.83.
G58U A68G: the self-cleavage came to 0.92.
For A52G U139G, the self-cleavage worked out at 1.6.
Regarding A125U A134G, the self-cleavage amounted to 1.48.
Take A36G U133C: the self-cleavage is 2.18.
Regarding A63G U103C, the self-cleavage was determined as 1.38.
As for U9G A117C, the self-cleavage was 0.41.
For the variant G65C A111U, the self-cleavage turned out to be 0.07.
With A91G A92U, the self-cleavage is 1.43.
As for U72A A95G, the self-cleavage was found to be 0.36.
For A92G A125G, the self-cleavage is 0.79.
With G73A A92G, the self-cleavage was 0.2.
Still for that read-out and setting: as for U38A A92G, the figure is 1.34; as for C61G, 1.24; as for A78U G93U, 0.53.
Same read-out and setting: for U97G U132C the value was 1.54; for A18G G93U, 2.69; for A11U A56G, 1.1.
For the variant C34U A94G, the self-cleavage came to 1.55.
As for A55G A90U, the self-cleavage is 2.14.
For A33G G106A, the self-cleavage turned out to be 0.04.
On to G104A A125G, for which the self-cleavage was determined as 0.01.
On the same count and under the same terms, for C61U A86G the value was 1.72.
Still for that read-out and setting: as for A89U A110U, the figure is 1.46.
Turning to G74A U108C, the self-cleavage stood at 0.01.
On the same count and under the same terms, as for U120G, the figure is 1.31; as for A24G A89C, 1.51.
As to G29C U127C, the self-cleavage worked out at 0.39.
Still for that read-out and setting: for U39A A118G the value was 1.28; for A51G A129C, 0.98; for A5G G65A, 0.9.
The same measure, in the same setting: as for A62G G80C, the figure is 0.13; as for A18C A23G, 0.81; as for A18U C113A, 0.05.
Still for that read-out and setting: for A27G U139A the value was 1.27.
For A68G A134U, the self-cleavage turned out to be 1.49.
As to U43A, the self-cleavage was found to be 1.58.
On the same count and under the same terms, as for A33C U122A, the figure is 1.61; as for A95U A126G, 1.55.
Take U19C G31U: the self-cleavage is 1.29.
With U70C U108C, the self-cleavage amounted to 0.02.
For G58A, the self-cleavage is 1.13.
As to A95G U108C, the self-cleavage turned out to be 0.01.
In the case of U108C, the self-cleavage is 0.01.
For A22G U102A, the self-cleavage turned out to be 0.32.
As for U49A U122A, the self-cleavage was determined as 1.32.
The same measure, in the same setting: for A56U the value was 1.54; for A18C U19C, 1.5.
For the variant U37C C101U, the self-cleavage is 0.78.
As for U49C A51G, the self-cleavage was 0.9.
For A64U A126U, the self-cleavage came to 1.2.
A5G A125G: the self-cleavage was determined as 0.42.
Turning to C16G A69G, the self-cleavage worked out at 1.02.
Still for that read-out and setting: for A68G A90U the value was 1.58.
For the variant A62G C105A, the self-cleavage was 0.03.
Still for that read-out and setting: as for A22G U70C, the figure is 0.91; as for U103A A114U, 0.05.
Consider A95G U130C, for which the self-cleavage is 1.89.
Still for that read-out and setting: for A78C A96G the value was 0.27; for U57C A114C, 0.04.
Consider A69G G99U, for which the self-cleavage was 0.23.
On to U2A A95U, for which the self-cleavage came to 0.86.
For A55G U124A, the self-cleavage is 0.97.
With G73A U108C, the self-cleavage came to 0.01.
Take U19A A63G: the self-cleavage turned out to be 1.59.
With A54G A117U, the self-cleavage was determined as 0.91.
As to G48C A92U, the self-cleavage turned out to be 1.18.
As to C35A A129G, the self-cleavage was determined as 1.27.
For the variant U9C C76U, the self-cleavage was found to be 0.15.
With A13U U124C, the self-cleavage was found to be 1.37.
For the variant A30G U103A, the self-cleavage amounted to 0.17.
For the variant G8A A92G, the self-cleavage came to 1.56.
With A94G A111U, the self-cleavage stood at 0.06.
As for C34A A89U, the self-cleavage stood at 1.63.
Take G20A A92U: the self-cleavage came out at 0.79.
For U43C A59C, the self-cleavage was 0.12.
On to C34U A69U, for which the self-cleavage is 2.37.
Still for that read-out and setting: for A5C A134U the value was 2.1; for A24C U133A, 1.76; for A11U A52U, 1.54.

The values above are taken from the RNAGym collection of RNA variant scans (doi:10.7554/elife.90254).
